Literature values, collected in PMC8757841.

Target: Transferrin receptor (Rattus norvegicus) (UniProt Q99376)
UniProt Q99376, sequence (Q99376 whole entry): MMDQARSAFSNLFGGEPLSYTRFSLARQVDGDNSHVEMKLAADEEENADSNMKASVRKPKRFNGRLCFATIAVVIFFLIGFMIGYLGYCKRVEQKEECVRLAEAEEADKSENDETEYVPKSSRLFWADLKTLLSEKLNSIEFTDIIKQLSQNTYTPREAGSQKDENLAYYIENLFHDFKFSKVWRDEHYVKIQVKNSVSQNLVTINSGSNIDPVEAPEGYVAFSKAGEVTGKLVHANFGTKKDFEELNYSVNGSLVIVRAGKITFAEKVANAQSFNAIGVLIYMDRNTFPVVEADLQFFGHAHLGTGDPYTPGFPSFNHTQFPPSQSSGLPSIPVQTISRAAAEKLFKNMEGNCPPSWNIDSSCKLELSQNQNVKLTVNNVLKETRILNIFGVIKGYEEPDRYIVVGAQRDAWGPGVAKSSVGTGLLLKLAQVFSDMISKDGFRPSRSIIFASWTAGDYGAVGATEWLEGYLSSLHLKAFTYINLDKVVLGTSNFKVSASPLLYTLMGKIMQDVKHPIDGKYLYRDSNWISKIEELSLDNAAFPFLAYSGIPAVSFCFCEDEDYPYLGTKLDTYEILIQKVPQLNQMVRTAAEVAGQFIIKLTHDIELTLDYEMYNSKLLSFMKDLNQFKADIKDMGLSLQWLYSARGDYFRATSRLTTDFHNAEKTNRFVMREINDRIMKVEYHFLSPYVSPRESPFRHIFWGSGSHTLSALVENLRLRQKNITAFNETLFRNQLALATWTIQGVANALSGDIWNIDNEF

Transferrin, sequence (P12346 20-698): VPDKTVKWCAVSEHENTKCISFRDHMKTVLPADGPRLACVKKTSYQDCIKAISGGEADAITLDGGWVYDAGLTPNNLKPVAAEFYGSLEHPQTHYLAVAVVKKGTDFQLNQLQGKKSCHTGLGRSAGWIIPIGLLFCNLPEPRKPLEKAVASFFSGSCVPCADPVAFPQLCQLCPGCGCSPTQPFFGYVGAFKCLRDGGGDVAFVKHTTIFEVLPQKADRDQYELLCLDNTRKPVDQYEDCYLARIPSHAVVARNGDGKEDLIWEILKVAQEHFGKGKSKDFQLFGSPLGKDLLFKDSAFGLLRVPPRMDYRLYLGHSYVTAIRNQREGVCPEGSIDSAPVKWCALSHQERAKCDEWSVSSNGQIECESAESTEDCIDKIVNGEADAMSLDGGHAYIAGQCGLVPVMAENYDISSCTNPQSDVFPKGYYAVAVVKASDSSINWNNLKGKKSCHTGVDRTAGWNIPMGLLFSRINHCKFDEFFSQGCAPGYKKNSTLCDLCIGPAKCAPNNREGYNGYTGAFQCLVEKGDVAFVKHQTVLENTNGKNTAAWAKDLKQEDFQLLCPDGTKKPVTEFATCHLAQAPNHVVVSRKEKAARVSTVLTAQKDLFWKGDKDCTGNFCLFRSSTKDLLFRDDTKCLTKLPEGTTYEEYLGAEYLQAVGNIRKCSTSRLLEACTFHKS

## Transferrin (from UniProt P12346)
  Kd: 5 nM
